Measurements reported in the supplement of paper PMC7125110.
± gives the standard error. This sample holds only a part of the variants without activity.

B1: glmS ribozyme (parent)
chain: AUAAAAGCGCCAGAACUACAGAAAUGUAGUUGACGAGGAGGAGGUUUAUCGAAUUUUCGGCGGAUGCCUCCAAA

Experiments:
Conditions in all cases: with glucosamine-6-phosphate
[1] = variants of: B1; experiment: self-cleavage kobs at 40 uM GlcN6P; higher = faster cleavage; RNA array
How it was run: (§1)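 Barcoded ribozyme variants, transcribed in situ by E. coli RNA polymerase on sequenced MiSeq chips, were followed via a hybridised Cy3 probe at 37 °C. Glucosamine-6-phosphate ranged from 40 μM to 10 mM in HEPES/KCl/Mg(OAc)2 buffer. kobs came from decay fits to per-tile medians, and kcat and KM from weighted Michaelis–Menten fits.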

[2] = variants of: B1; experiment: self-cleavage kobs at 160 uM GlcN6P; higher = faster cleavage; RNA array
How it was run: as §1

[3] = variants of: B1; experiment: self-cleavage kobs at 640 uM GlcN6P; higher = faster cleavage; RNA array
How it was run: as §1

[4] = variants of: B1; experiment: self-cleavage kobs at 2500 uM GlcN6P; higher = faster cleavage; RNA array
How it was run: as §1

[5] = variants of: B1; experiment: self-cleavage kobs at 10000 uM GlcN6P; higher = faster cleavage; RNA array
How it was run: as §1

| Variant | self-cleavage kobs at 40 uM GlcN6P [1] | self-cleavage kobs at 160 uM GlcN6P [2] | self-cleavage kobs at 640 uM GlcN6P [3] | self-cleavage kobs at 2500 uM GlcN6P [4] | self-cleavage kobs at 10000 uM GlcN6P [5] |
| --- | --- | --- | --- | --- | --- |
| C8U A33C | < 1e-05 s⁻¹ | < 1e-05 s⁻¹ | < 1e-05 s⁻¹ | < 1e-05 s⁻¹ | < 1e-05 s⁻¹ |
| C8A U30G | < 1e-05 s⁻¹ |  | < 1e-05 s⁻¹ | < 1e-05 s⁻¹ | < 1e-05 s⁻¹ |
| C8G C70A | < 1e-05 s⁻¹ |  |  | < 1e-05 s⁻¹ | < 1e-05 s⁻¹ |
| C8A C11U A15U C50G U56A G63A | 5.94e-05 ± 2e-05 s⁻¹ |  |  | 0.000104 ± 5.1e-05 s⁻¹ | 0.00011 ± 2.4e-05 s⁻¹ |
| C8A A64U | < 1e-05 s⁻¹ | < 1e-05 s⁻¹ | < 1e-05 s⁻¹ | < 1e-05 s⁻¹ | < 1e-05 s⁻¹ |
| C8A C11G G38U G60A | < 1e-05 s⁻¹ | < 1e-05 s⁻¹ | < 1e-05 s⁻¹ |  |  |
| C8G U31C C71A | < 1e-05 s⁻¹ |  |  |  |  |
| C8A C11G | < 1e-05 s⁻¹ | < 1e-05 s⁻¹ | < 1e-05 s⁻¹ | < 1e-05 s⁻¹ | < 1e-05 s⁻¹ |
| C8A C11U | < 1e-05 s⁻¹ |  | < 1e-05 s⁻¹ | < 1e-05 s⁻¹ | < 1e-05 s⁻¹ |
| C8A A52C | < 1e-05 s⁻¹ | < 1e-05 s⁻¹ | < 1e-05 s⁻¹ |  | < 1e-05 s⁻¹ |
| C8G A64G | < 1e-05 s⁻¹ | < 1e-05 s⁻¹ |  | < 1e-05 s⁻¹ | < 1e-05 s⁻¹ |
| C8G A64C | < 1e-05 s⁻¹ | < 1e-05 s⁻¹ |  | < 1e-05 s⁻¹ | < 1e-05 s⁻¹ |
| C8G G32C G62U | < 1e-05 s⁻¹ |  |  |  | < 1e-05 s⁻¹ |
| C8G G37C C67G | < 1e-05 s⁻¹ |  |  | < 1e-05 s⁻¹ | < 1e-05 s⁻¹ |
| C8G C58G G60A | < 1e-05 s⁻¹ |  |  |  | < 1e-05 s⁻¹ |
| C8G A36C | < 1e-05 s⁻¹ | < 1e-05 s⁻¹ | < 1e-05 s⁻¹ | < 1e-05 s⁻¹ |  |
| C8G A36G | < 1e-05 s⁻¹ | < 1e-05 s⁻¹ | < 1e-05 s⁻¹ |  | < 1e-05 s⁻¹ |
| C8G C71A | < 1e-05 s⁻¹ | < 1e-05 s⁻¹ | < 1e-05 s⁻¹ | < 1e-05 s⁻¹ |  |
| C8G C71U | < 1e-05 s⁻¹ | < 1e-05 s⁻¹ | < 1e-05 s⁻¹ | < 1e-05 s⁻¹ | < 1e-05 s⁻¹ |
| C8U A42C | < 1e-05 s⁻¹ | < 1e-05 s⁻¹ | < 1e-05 s⁻¹ | < 1e-05 s⁻¹ | < 1e-05 s⁻¹ |
| C8U A42G | < 1e-05 s⁻¹ | < 1e-05 s⁻¹ |  |  | < 1e-05 s⁻¹ |

| Variant | self-cleavage kobs at 40 uM GlcN6P [1] | self-cleavage kobs at 160 uM GlcN6P [2] | self-cleavage kobs at 640 uM GlcN6P [3] | self-cleavage kobs at 2500 uM GlcN6P [4] | self-cleavage kobs at 10000 uM GlcN6P [5] |
| --- | --- | --- | --- | --- | --- |
| C8G G60C | < 1e-05 s⁻¹ | < 1e-05 s⁻¹ |  |  | < 1e-05 s⁻¹ |
| C8U A14G | < 1e-05 s⁻¹ | < 1e-05 s⁻¹ |  | < 1e-05 s⁻¹ |  |
| C8A U45A A53U | < 1e-05 s⁻¹ |  |  |  |  |
| C8G G43A G59A G60U | < 1e-05 s⁻¹ |  |  |  |  |
| C8G U65C | < 1e-05 s⁻¹ | < 1e-05 s⁻¹ | < 1e-05 s⁻¹ | < 1e-05 s⁻¹ |  |
| C8A G13A U47G G60U | < 1e-05 s⁻¹ |  |  |  |  |
| C8A C67U | < 1e-05 s⁻¹ | < 1e-05 s⁻¹ | < 1e-05 s⁻¹ |  | < 1e-05 s⁻¹ |
| C8G C10A G60U | < 1e-05 s⁻¹ |  |  |  | < 1e-05 s⁻¹ |
| C8G G40U | < 1e-05 s⁻¹ |  | < 1e-05 s⁻¹ | < 1e-05 s⁻¹ | < 1e-05 s⁻¹ |
| C8G G40A | < 1e-05 s⁻¹ | < 1e-05 s⁻¹ |  | < 1e-05 s⁻¹ | < 1e-05 s⁻¹ |
| C8G G43U | < 1e-05 s⁻¹ |  | < 1e-05 s⁻¹ | < 1e-05 s⁻¹ |  |
| C8G A15U G62C | < 1e-05 s⁻¹ |  | < 1e-05 s⁻¹ |  |  |
| C8U A39U | < 1e-05 s⁻¹ | < 1e-05 s⁻¹ |  | < 1e-05 s⁻¹ |  |
| C8G G29U | < 1e-05 s⁻¹ | < 1e-05 s⁻¹ | < 1e-05 s⁻¹ | < 1e-05 s⁻¹ | < 1e-05 s⁻¹ |
| C8G C50A C61G G63A C71G | 8.24e-05 ± 3.5e-05 s⁻¹ |  |  |  | 0.000367 ± 0.00014 s⁻¹ |
| C8A G29C G35A C67G | < 1e-05 s⁻¹ |  |  |  |  |
| C8A C11G A12G C68U | < 1e-05 s⁻¹ |  |  |  |  |
| C8G C16G G41A U47A | < 1e-05 s⁻¹ |  | < 1e-05 s⁻¹ | < 1e-05 s⁻¹ | < 1e-05 s⁻¹ |
| C8U A15G G35U C67U | < 1e-05 s⁻¹ |  |  |  |  |
| C8G A39C | < 1e-05 s⁻¹ | < 1e-05 s⁻¹ | < 1e-05 s⁻¹ | < 1e-05 s⁻¹ | < 1e-05 s⁻¹ |
| C8G C10G C11U A33G U47C C70A C71A | < 1e-05 s⁻¹ |  |  |  |  |
